Results reported in paper PMC12756313.

Target: Protein A (coating of 10 μm silica microparticles) (UniProt P38507)
Experiment: flow cytometry of beads; protein A coated on 10 μm silica particles, incubated with PE Mouse Anti-Human CD9 for 1 h, washed twice by centrifugation (200× g, 1 min); FACS Canto II, PE excitation 488 nm, filter 585/42; unlabeled proteinA-Silica particles used to set the gate

BD PE Mouse Anti-Human CD9 (Catalogue #341647, BD Biosciences) (antibody)
percent of beads positive for PE: 93%
